Numbering of substitutions follows the chain as printed. Names may count otherwise.
T1: EsCas13d, nuclease-dead (Eubacterium siraeum, UniProt B0MS50, R295A;H300A;R849A;H854A)
T1 sequence: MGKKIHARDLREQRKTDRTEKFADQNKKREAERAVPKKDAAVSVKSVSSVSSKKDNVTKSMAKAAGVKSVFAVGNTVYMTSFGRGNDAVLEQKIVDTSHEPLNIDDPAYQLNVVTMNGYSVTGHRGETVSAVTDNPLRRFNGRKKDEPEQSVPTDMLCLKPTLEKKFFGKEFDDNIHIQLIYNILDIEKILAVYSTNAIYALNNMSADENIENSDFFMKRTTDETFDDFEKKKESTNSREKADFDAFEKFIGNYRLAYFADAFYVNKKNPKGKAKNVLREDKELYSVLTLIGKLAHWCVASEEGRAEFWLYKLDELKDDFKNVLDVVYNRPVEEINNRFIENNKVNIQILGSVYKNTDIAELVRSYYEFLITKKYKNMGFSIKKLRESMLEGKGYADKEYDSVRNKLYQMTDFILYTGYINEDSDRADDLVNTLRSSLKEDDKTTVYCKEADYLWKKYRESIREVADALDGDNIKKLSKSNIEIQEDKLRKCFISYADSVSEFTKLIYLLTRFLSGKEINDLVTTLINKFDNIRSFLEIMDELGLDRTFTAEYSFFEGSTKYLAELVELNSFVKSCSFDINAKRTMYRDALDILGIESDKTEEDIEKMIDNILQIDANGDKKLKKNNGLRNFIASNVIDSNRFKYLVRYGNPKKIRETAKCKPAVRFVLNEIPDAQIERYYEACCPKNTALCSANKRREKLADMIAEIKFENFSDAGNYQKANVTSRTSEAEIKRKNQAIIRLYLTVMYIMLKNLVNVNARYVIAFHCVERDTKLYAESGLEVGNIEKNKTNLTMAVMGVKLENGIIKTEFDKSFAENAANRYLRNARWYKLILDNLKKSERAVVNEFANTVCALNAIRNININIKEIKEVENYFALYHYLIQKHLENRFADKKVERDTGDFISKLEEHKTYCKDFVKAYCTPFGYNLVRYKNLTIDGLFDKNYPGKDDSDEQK

B1: target 1 insG 3' of 18,insA 3' of 5 (mixed)
RNA 1: CACCCGUGCAAAAAUGCAGGGGUCUAAAACUGAGCGGAUAACCUCUCUAUGG
RNA 2: GGGAAUGGAUCCACAUCUACGAAUUCGUACCAUAGGAGAGGUUAUCCGACUCACCGAGAUCGGAAGAGCACACGU
B2: target 1 C6U,C21A (mixed)
RNA 1: B1 RNA 1
RNA 2: GGGAAUGGAUCCACAUCUACGAAUUCGUACAAUAGAGAGGUUAUCUGCUCACCGAGAUCGGAAGAGCACACGU
B3: target 2 MT 5'PFS UGG 3'PFS CUA (mixed)
RNA 1: CACCCGUGCAAAAUUGCAGGGGUCUAAAACCUUCUCCAAAUUGUUUCAUCCU
RNA 2: GGGAAUGGAUCCACAUCUACGAAUUCUGGAGGAUGAAACAAUUUGGAGAAGCUAAGAUCGGAAGAGCACACGU
B4: target 2 MT 5'PFS UGA 3'PFS CGC (mixed)
RNA 1: B3 RNA 1
RNA 2: B3 RNA 2 with G29A, U53G, A54C
B5: target 2 MT 5'PFS UGC 3'PFS UAU (mixed)
RNA 1: B3 RNA 1
RNA 2: B3 RNA 2 with G29C, C52U, U53A, A54U
B6: target 2 MT 5'PFS UGC 3'PFS CAU (mixed)
RNA 1: B3 RNA 1
RNA 2: B3 RNA 2 with G29C, U53A, A54U
B7: target 2 MT 5'PFS GUA 3'PFS CAC (mixed)
RNA 1: B3 RNA 1
RNA 2: B3 RNA 2 with U27G, G28U, G29A, U53A, A54C
B8: target 2 MT 5'PFS UGC 3'PFS UAA (mixed)
RNA 1: B3 RNA 1
RNA 2: B3 RNA 2 with G29C, C52U, U53A
B9: target 2 MT 5'PFS UAU 3'PFS UAA (mixed)
RNA 1: B3 RNA 1
RNA 2: B3 RNA 2 with G28A, G29U, C52U, U53A
B10: target 2 MT 5'PFS UGA 3'PFS CGA (mixed)
RNA 1: B3 RNA 1
RNA 2: B3 RNA 2 with G29A, U53G
B11: target 2 MT 5'PFS AGG 3'PFS CAA (mixed)
RNA 1: B3 RNA 1
RNA 2: B3 RNA 2 with U27A, U53A
B12: target 2 MT 5'PFS GAG 3'PFS AGG (mixed)
RNA 1: B3 RNA 1
RNA 2: B3 RNA 2 with U27G, G28A, C52A, U53G, A54G
B13: target 2 MT 5'PFS AAA 3'PFS CUG (mixed)
RNA 1: B3 RNA 1
RNA 2: B3 RNA 2 with U27A, G28A, G29A, A54G
B14: target 2 MT 5'PFS GAU 3'PFS CCG (mixed)
RNA 1: B3 RNA 1
RNA 2: B3 RNA 2 with U27G, G28A, G29U, U53C, A54G
B15: target 2 MT 5'PFS GGG 3'PFS UGU (mixed)
RNA 1: B3 RNA 1
RNA 2: B3 RNA 2 with U27G, C52U, U53G, A54U
B16: target 2 MT 5'PFS UAU 3'PFS UAC (mixed)
RNA 1: B3 RNA 1
RNA 2: B3 RNA 2 with G28A, G29U, C52U, U53A, A54C
B17: target 2 MT 5'PFS UGC 3'PFS UAC (mixed)
RNA 1: B3 RNA 1
RNA 2: B3 RNA 2 with G29C, C52U, U53A, A54C

biological target: T1, EsCas13d, nuclease-dead; assay: crRNA (strand 1, pre-loaded); Mg2+; 40 mM Tris-HCl pH 7.5, 150 mM NaCl, 6 mM MgCl2, 1 mM DTT, 0.1% Tween-20, 0.2 mg/ml BSA; 25 C; 10 min per concentration, then washed; settings: tags: His6-TwinStrep-SUMO cleaved; N-terminal SNAP kept (SNAP-Surface 488); label: 3' end held by stalled T7 RNA polymerase

Binder | Kd
B1 | 36 ± 4 nM
B2 | 26.2 ± 1.6 nM
B3 | 7 ± 1.3 nM
B4 | 8.5 ± 1.1 nM
B5 | 14.3 ± 2.6 nM
B6 | 25 ± 8 nM
B7 | 9.6 ± 1.2 nM
B8 | 17 ± 6 nM
B9 | 18.1 ± 3 nM
B10 | 7.2 ± 0.8 nM
B11 | 4.1 ± 0.7 nM
B12 | 5.5 ± 0.4 nM
B13 | 5.5 ± 1.1 nM
B14 | 14.2 ± 1.4 nM
B15 | 12.2 ± 0.8 nM
B16 | 26 ± 6 nM
B17 | 21 ± 4 nM

Reference: publication PMC10786891, “Massively parallel profiling of RNA-targeting CRISPR-Cas13d”
